Assay: soluble on expression in E. coli; label from the status in PepcDB or PDB records
With “MGSDKIHHHHHHMKVIKFGGSSLASSQQLQKVLAIVEADQKRKYVIVSAPGKRFDGDTKVTDLLIQYARQTIHHQDTQAVTAAIIDRYAEIGHGFNVPEAQLTPIFETIRNLPKQSYADNTYLMAAFKAHGERLNAQLVAAVFQQSGLNARYLDPKDAGMVVTDVPDDAQIIKSSYDQLAKWANSEQILVIPGFFAYNRNGQICTFSRGGSDITGAIIARGVHAERYENFTDVDAIYAVNPSLVAKPAAISEMTFTEMRELSYAGFSVFHDEALIPAIEDNITVNVKNTNHPEAPGTLIQSTREPNPHYPVTGIASSSSFCSLYLRKYLLNKEVGLGRKILTILENHHISYEHMPSGIDDLTIIFDEHQLTPELEKTLVAEISTAINPDEIYFTHDYSILMLVGENMRNRVGIMSRAATALANDNIKLIMVNQGASEISIMFGVHDNDADQAVIALYKEFFD” the “soluble on expression in E. coli” value was “not soluble”. For “MAHHHHHHSLTTVGLELINVSSSWDEGIVELFEKIKRENKANGQLTGDDGLFFTNLYVTPVLKNINLRLEEGMMLAVAGSTGSGKSSLLMMILGELVPSEGKIRHSGRISYSPQTSWIMPGTIRDNILFGLTYDEFRYTSIIRACQLEEDLDLLPEKDKTAIAEGGVTLSGGQRARICLARAVYKDADLYLLDAPFTHLDIATEKEIFDKCVCKLIASKTRVVVTSKLEHLKRADRILLLHNGDCYFYGTFSELQAQRPDFSSLLLGLGSYDNISAERRSSILTETLRRVSVDETAGFRGEG”, the “soluble on expression in E. coli” value was “soluble”. For “AIACHTQVGGSMQVPEPRRPFTCSSENNVTNSFFEEAYSASFRSKLYNMVEEIEQERAKYCNSANLSYMDAFGVEKESIEEDYNKEEDRDSLCSVDIADNSETSNRSSEDLLCDNCSKSLMFLNNVFKWNDLLFCNLDCYTSAILKNQKGADVKHRVACSLSPTWHKDCVHSVQD”, the “soluble on expression in E. coli” value was “soluble”. In the case of “VTTSSDPSSPVPQEDLDAVAAQLGREPRGVLEIAYRSPDGTPGVVKTAPKLPDGTPFPTLYYLTDPRLTAEASRQESAGVMREMTERLGQDPELAAAYLRAHESYLAERDAIEPLGTDFTGGGMPERVKCLHVLMAHSLAKGPGVNPLGDESVALAASAAGGKLRGTAIPADWPGIDDVESPEQ”, the “soluble on expression in E. coli” value is reported as “not soluble”. For “HSQRVIRELDEHGFWSAMIPQWEHIRGRMPRESVHIHTIDVHSMVVTANCATQSIRVARPDLLFLAALFHDIGKGYGRRHEEVGAEFVVDMATTLRLNPSDTQIVETLVAQHTIIPHIVGRYNPTSTEAIDKLLDAVNYDLLTLDLLEALVEADAQGTAPGVWSAVLRYGTRELCAQARQR”, the “soluble on expression in E. coli” value was “not soluble”. In the case of “MGSDKIHHHHHHMFYFTVNNPQDPLSTEIVETNRRDLAFWHRLRPKDDDDLATAINKICVRTGLSRKLIAACLFSICFLPYLPNFHKLVEKLGHLDMARINAITKAGEKVPSEKRELFDAYLVDYLTPRAEAQCLPQASSISAMMRKFIAQHCPDDKASSATNDGSIRYRRNNKGGISITVDATASEVTEIKAALEQMSKDKDCTPGTSLLHIIRGLPTKVVLNTYGTKDSPEYLEGGTWLSKEQSEFWKTRTTSSRDMDAAHFSYTTAYAPTREMRVYIKGLRTTCSVPGCSVAVENCQLDHIIPWGEGGPTTPWNIHPLCVFHHIQKTEGRLQCYPLPDGTVLFLVDGIPVFSIPDGPLSKSNKTWGTKFGKYMERRIAA”, the “soluble on expression in E. coli” value is reported as “not soluble”. With “MAHHHHHHMSVDFTSKAVDLLKRATTLDEAKEYEEAYRWYMDSIEVFMTAIKYENKNPTKKEMLKNKVRQVMERAKMIKEYLDGSKEGDSNVGNTGSTAQKTASASKKAKEEEEDKQRMRNALGGAIVRVKPNVNWSQIAGLEGAKEALKEAVILPVRFPQLFTGNRKPWKGILMYGPPGTGKSFLAKAVATEADGTFLSVSSADLMSRWLGDSEKLVRNLFEMAREAWKTDGKPAIIFIDEIDSMCSSRTDGENDALRRIKTEFLVQMQGVGHEDDGVLVLGATNIPWSLDSAVRRRFERRIYIPLPDVQARYQMFKIHIGDTPHTLTEKDWYELARMTDKYSGSDINIVVRNAMMECIRSVQVATHFKRVTGPDLKDPTRMTNNRLVPCSPGDPEGFAMTAQEITEPGLLMPLPVTMQDFVKALRTARPSVADDDITQHLKFTEEFGQEG” the “soluble on expression in E. coli” value was “not soluble”. With “MGSDKIHHHHHHMKIAIVGGPTAVGKTDIMIEVCEEIGAEIISMDSRQIYRYMDIGTAKPTPEQRKRVLHHMIDIIDPDEYYNAFMYRKDSLRAMEDVLRRGKIPVYVGGTGLYADALVRGIFEGVPADENIRKELRELERREPGILRKMLEELDPEAATRIHPNDLKRTIRALEVYMKTGRRISELQKEAKGDDRFFIIVLTRERYELYERINKRVDKMIEMGLVDEVKRLLGMGYSKDLNSMKTIGYKEVIDYLEGKYDFDKMVHLIKRNTRHFARRQIIWFKRYKEAVWYNLTFEDVGEVKEKLKKLIVENFSV” the “soluble on expression in E. coli” value was “not soluble”. In the case of “MGHHHHHHSHMPGRSSSNSGSTGFISFSGVESALSSLKNFQACINSGMDTASSVALDLVESQTEVSSEYSMDKAMVEFATLDRQLNHYVKAVQSTINHVKEERPEKIPDLKLLVEKKLLALQSKNSDADFQNNEKFVQFKQQLKELKKQCGLQADREADGTEGVDEDIIVTQSQTNFTCPITKEEMKKPVKNKVCGHTYEEDAIVRMIESRQKRKKKAYCPQIGCSHTDIRKSDLIQDEALRRAIENHNKKRHRHSE”, the “soluble on expression in E. coli” value is reported as “not soluble”. In the case of “GMSSSGIEIAKPFVTATTNVLSTMAGIQPIPGQPYVKKNNVAKGDVSAVVGITGHKNGSISVTFTKQCAIAVVKAMLGDDIQDIIQDTKDAVGEVTNMISGQARAALSEMGMTFQGATPSVIMGDGHTISHVTKSPVIAIPFKTNHGEFTVEFCLE”, the “soluble on expression in E. coli” value is reported as “soluble”. In the case of “MGSDKIHHHHHHMSLVCSVIFIHHAFNANILDKDYAFSDGEILMVDNAVRTHFEPYERHFKEIGFNENTIKKYLQCTNIQTVTVPVPAKFLRASNVPTGLLNEMIAYLNSEERNHHNFSELLLFSCLSIFAACKGFITLLTNGVLSVSGKVRNIVNMKLAHPWKLKDICDCLYISESLLKKKLKQEQTTFSQILLDARMQHAKNLIRVEGSVNKIAEQCGYASTSYFIYAFRKHFGNSPKRVSKEYRCQRHTGMNTGNTMSALAI”, the “soluble on expression in E. coli” value is reported as “not soluble”. In the case of “QRWSLPSLDPFGDRETAIETVGETVETSIDAVDTDSLAIAFSGGVDSALLAARLDAPLYVAGFPDSHDIEAARSAAELLGTEVRVVELTHDAIERAVPEIARATARTNAMDVQIALPLYLVAERVAGDGFDRLALGQGADELFGGYAKVAKAPEDPRVEADTVRGAQREVIASLPDQLERDVLALRAAGVEPVTPLLHDRVIGAALRLDGDLLVDGETRKVALRAAARESLPDEIADRDKKAAQYGSLAARELDRLARQAGYKRRMDDHVTQYVESLVE”, the “soluble on expression in E. coli” value is reported as “not soluble”. In the case of “MKYEVVITSGNSNQAPIGAFFKGDFVTLHLYGGSHTFENLQKDGFYILNTCSPYLIAKSVLDDAGDYEYLDNDGIKIPYLKDSYKIELIEIKSRKIVETKNEFGSSKLMIVEGKPIFEKILNCNTSAYNRADGAVVEMAVLYSRKNMISKEEINDEITRLMKIIKKVGSKNHIELAKKLGVLEHHHHHH”, the “soluble on expression in E. coli” value is reported as “not soluble”. For “MAGWVAKRFWKEASVAEEPGGFAVLLDGRGVRTPAKRPLILPTCALAEAVASEWQAQEGEVRPETMPVTRSANSALDKVAPQFDEVTEMLAAYGGTDLLCYRATAPEALVARQARAWDPVLAWAAERFEAPLETTAGVMHQAQPEASLTRLAEHVRSFSPFQVAGFHDLVAISGSLILGLGVTEGHLLPEEAWELSRVDESWQIEQWGADEEAAEIEAFRRTAFLQAARFYALCGKLAAALEHHHHHH”, the “soluble on expression in E. coli” value was “not soluble”. For “MSLGVEENPKLPKSVQRHLEPDERVLFAIKKKISIEKPKWLLVTDRRIIYLDEKVLGRYDFKAIPYQKLEQVVVKLGIMSSEFIIEGEENITLKLGWMDKEEARKAINAIKDALNAIAVEPVSIDVNKGLTSETWVLKKPREFVTRTMPAYQPAQVREEKEDPLEKLKKLKELYDMGVISQEEYEEKRKKLLEEIEGHHHHHH”, the “soluble on expression in E. coli” value was “soluble”. For “MRLALFDLDNTLLGGDSDHAWGDYLYQRGILDAATYKSRNDEFYQDYLAGTLNMTDYLNFTLEILGNTDMAQLQEWHREFMRDCIEPIMLPKALELIAKHREAGDKLVVITATNRFVTAPIVARLGIETLLATECEMVDGRYTGRTTGVPCFREGKVTRLNQWLEDNAFSLEDSYFYSDSMNDLPLLEQVANPVAVDPDARLRAEAEQRGWPVITLRS”, the “soluble on expression in E. coli” value was “not soluble”. For “DAAKSHAPVVRSMEASLSPELKRELSDGIECIGIGGGDLHTRIVWTQYGTLPHRVGDVQCRYRIVLLPQNADAPQGWQTVWQGARPRNKDSKFALIRKIGENI”, the “soluble on expression in E. coli” value was “not soluble”. For “LTAEEIIQYISDAKKSTPIKVYLNGNFEGITYPESFKVFGSEQSKVIFCEADDWKPFYEAYGSQFEDIEIEMDRRNSAIPLKDLTNTN”, the “soluble on expression in E. coli” value was “soluble”. In the case of “MGSDKIHHHHHHMERFPYEKLPESELKELKELGRLCRGDILKMTYIANSGHPGGSMSSIDLYLTVFKYAKLRPVDDPARDRIVISHGHTSPGVYAAMARLGFVDLDEVLAGFRHPASVFEGHVTRGVGIIDWTTGNLGQGLSAGLGFALASRFTGKDYHVFVLMSDAEQAKGQVAEARRVAKKYGVTNLTVIIDYNDAQISGRARDVMPVNIKENYLADGWRVIEIDGHDYEQIYLALKEAVEDELNPVAIIAKTVMGKGVSFMENEVKYHGKPLNREELEKALAELGIENDVDVYIEKRKQLPVEKHKKVYKTYPIKIDTGEPITYTSPTDNRSAFGKAILDLVKKNVNNPETTPIVAVDCDLKGSVKLDLLDKEFPERLLEVGVQEHNAAAMAGALSAEGVITFFADFGVFGISETYNQHRLNAINGTNLKVVVTHCGLNVGEDGKTHHGLDYVSGPMNWYGFKVIVPGDPNQTDRVVRYAAKEYGNFVIAMGRSKLPIILDENGKPFFGEGYTFEYGKIDVVRKGDDAVIITYGSTLCEAVNAADELKKEGVNVAVLNVSCPVDLDIETLKMVDGKPVLVVEDHNVFTGLGSFLGTTLLENGIIPKKYVRVGVPEFAVSGSYTMLYKLYGLDKDGIISRLREML”, the “soluble on expression in E. coli” value is reported as “not soluble”. For “MGSDKIHHHHHHMHEDKNDIFESIDTEDFDNKTEEECLELVRKNGLNLIYIKNQTEEICLEAVRQNCNAIKCVQNQTEKICIEAVKQDWRMLEFVEEPTEEICMLAINQDGTALKYIENQTEELCLRAVEKNGAALEYVKEQTEEICIEAVRNSEFGLARVKNQTEKICMEAVKHCSYNLKWVENQTEEICMEAVRQNGLDLKFVKNQTETICLRAVRQNGMALEFVKEQTVGICLKAVRQYGMALKFVKEQTEEICTEAIKQDKRALSFVKGDKEKYKALYDNNEPFAKRYVRNVIEKENRALIKKGEENAKIKIAGKLYDRGMSFEDISDIVEIEISKLKVSLGVF”, the “soluble on expression in E. coli” value was “not soluble”. For “IVVLHGLYMHGLVMKPLASRLRRKGHSVQVVSYNSVRINEALLFKRIRNCLSETEKNVIVGHSLGGILAVHFVNSHNDKHTPIDSIVTIGSPLQGASIAKEIQNRKLGFILGNSKEQGLVDVNQLTVDCPIGSIAGTLPIGIRSSIIRDRVPSDGTVTVEETVLPELKDHLCLNYSHTSLIYAKQTVEQIDYFIHHHEFKRV”, the “soluble on expression in E. coli” value was “not soluble”. In the case of “MGSDKIHHHHHHMELKARAVGVEIIPKGKIIYYSVPNGDEYERGDLVLVLGDFGLEVGKVLIPPREVVIDEVGYELKAVIRKLTDEDLEQYRKNVEDALKAFQICKQKIKEHGLPMKLLYAKYTFDRTRLIFFFSAEGRVDFRELVRDLAKIFKTRIELRQVGVRDEMKFFGGLGLCGLPTCCSTFLREFTSVTLKHAKKQQMMINPAKISGPCRRLLCCLTYEYDFYEKELEGIPDEGSTITYEGKRYKVVNVNVFLRTVTLFSEQEGEMIKLPFDYFRKGE”, the “soluble on expression in E. coli” value is reported as “not soluble”.
